In US20160272690A1 (BAO KANG BIOMEDICAL HEALTHCARE, published 2016):
Bridges are numbered along the chain shown (N, C = ends). Where no end group is shown, it is not given here. [ ]: non-standard residue; d: D form. hCys = N[C@@H](CCS)C(=O)O

T1: TEAD
T1 chain: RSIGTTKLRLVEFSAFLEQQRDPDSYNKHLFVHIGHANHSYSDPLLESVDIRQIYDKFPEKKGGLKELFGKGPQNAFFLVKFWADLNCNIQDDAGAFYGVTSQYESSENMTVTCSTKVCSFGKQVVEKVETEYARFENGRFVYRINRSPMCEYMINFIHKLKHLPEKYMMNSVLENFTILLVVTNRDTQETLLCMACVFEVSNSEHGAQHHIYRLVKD


Target: T1, TEAD
Experiment: IC50 for TEAD binding (TR-FRET test)

Row | IC50 [nM] | Binder
1 | 28 | VPMCLRKLPESFCHPPE (disulfide 4-13) [polypeptide represented by SEQ ID NO.: 8]
2 | 25 | VPM[hCys]LRKLPCSFCDPPE (disulfide 4-13) [polypeptide represented by SEQ ID NO.: 9]
